Test results as given in US20220380801A1, “TRIPARTITE SYSTEMS FOR PROTEIN DIMERIZATION AND METHODS OF USE” (priority 2019, published 2022).

Tested on: NanoLuc-PEST reporter in HEK293 cells
Experiment: Transcriptional regulation assay (split transcription factor), NanoLuc-PEST reporter
Format: cell-based, human
Description: The iDimerize regulated transcription system (Takara) was used to test the ability of PRSIM-based CIDs to regulate gene expression. […] The DBD and AD are separately fused to the two protein components of a CID such that, only in the presence of the small molecule inducer, the AD is brought into close proximity to the DBD, recruiting the transcription machinery to a promoter harbouring the DBD recognition sites. The iDimerize regulated transcription system (Takara) provides two vectors, pHet-Act1-2 and pZFHD1-Luciferase. […]
All transcriptional regulation assays were performed in adherent HEK293 cells cultured in 384-well plates. Cells enzymatically dissociated from a tissue culture flask were counted and plated at 7.5×10^3 cells/well in a 384-well plate. […] On day 3, wells were treated with different concentrations of either A/C heterodimeriser (for the FRB:FKBP12 control), simeprevir or with vehicle control, and 24 hours later luminescence was quantified with an Envision plate reader immediately following addition of SteadyGlo luciferase substrate (Promega) or Nano-Glo Vivazine luciferase substrate (Promega). Alternatively, reverse transfections were carried out on Day 1, addition of dimeriser on Day 2 and luminescence quantified 24 hours later on Day 3. […]

B1: PRSIM_23: Tn3 protein specific for HCV NS3/4A PR (S139A):simeprevir complex, SEQ ID NO: 5 (protein)
chain: RLDAPSQIEVKDVTDTTALITWVDPRYDDIWWFELTYGIKDVPGDRTTIKLYLNDPYYSIGNLKPDTEYEVSLISYTGDSYSRSGSNPAKITFKTGL
modifications: PRSIM_23
- fold change of NanoLuc-PEST expression (one copy of the DBD fusion partner): 55 fold
- fold change of NanoLuc-PEST expression (three copies of the DBD fusion partner): 100 fold
